These results are taken from PMC4880913.

Data set [1] deals with T1, p63-DBD (UniProt Q9H3D4).
T1 sequence: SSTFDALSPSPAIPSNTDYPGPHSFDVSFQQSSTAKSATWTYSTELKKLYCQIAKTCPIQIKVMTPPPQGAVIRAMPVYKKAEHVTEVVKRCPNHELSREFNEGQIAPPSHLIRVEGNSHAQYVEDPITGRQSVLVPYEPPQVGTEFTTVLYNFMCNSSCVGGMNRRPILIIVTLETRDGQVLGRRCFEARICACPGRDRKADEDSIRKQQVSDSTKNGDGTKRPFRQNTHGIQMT
Kind of data set: fluorescence polarization. To be noted: FP: 100 nM 5'-fluorescein dsDNA, 10 mM sodium phosphate pH 7.2, 1 mM DTT, temperature not stated; NMR: 1 mM sodium phosphate pH 7.2, 100 mM NaCl, 5 mM DTT ….

Data set [2] has as its target p53 DBD (Homo sapiens) (UniProt P04637). Particulars: cited from earlier work.
Data set [3] concerns the target fluorescein-labeled BclxLΔTM (human) (UniProt Q07817). Kind of data set: fluorescence polarisation; 100 nM N-terminally fluorescein-labeled BclxLΔTM titrated with increasing amounts of p63-DBD; 10 mM sodium phosphate pH 7.2, 1 mM DTT; one-site or cooperative binding model; triplicate. On the technique in general: In fluorescence polarisation assays a small probe gives low polarisation when free and higher when bound to something large.

p53 DBD (Homo sapiens), sequence (P04637 94-312): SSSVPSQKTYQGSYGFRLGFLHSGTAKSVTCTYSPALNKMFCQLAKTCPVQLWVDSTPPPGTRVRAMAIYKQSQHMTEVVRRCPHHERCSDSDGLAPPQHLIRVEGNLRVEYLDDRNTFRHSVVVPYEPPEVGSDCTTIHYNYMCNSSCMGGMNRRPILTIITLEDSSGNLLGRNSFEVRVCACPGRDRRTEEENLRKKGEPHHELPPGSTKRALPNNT
BclxL, sequence (Q07817 whole entry): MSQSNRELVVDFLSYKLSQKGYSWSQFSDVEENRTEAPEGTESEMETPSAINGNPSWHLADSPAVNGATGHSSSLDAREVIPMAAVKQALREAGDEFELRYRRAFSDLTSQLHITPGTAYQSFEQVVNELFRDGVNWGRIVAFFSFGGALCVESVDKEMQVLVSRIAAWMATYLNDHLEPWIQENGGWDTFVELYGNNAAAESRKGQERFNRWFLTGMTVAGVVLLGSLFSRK
fluorescein-labeled BclxLΔTM (human), sequence (Q07817 1-212, stated change not applied): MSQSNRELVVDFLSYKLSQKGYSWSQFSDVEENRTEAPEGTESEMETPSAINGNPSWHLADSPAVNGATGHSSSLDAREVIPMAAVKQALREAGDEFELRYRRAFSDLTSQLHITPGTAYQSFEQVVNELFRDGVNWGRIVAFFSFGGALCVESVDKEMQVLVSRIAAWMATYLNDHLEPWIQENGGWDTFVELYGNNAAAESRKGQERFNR

On to p21 response element, for which the binding signal (fold lower affinity than p53-DBD) in data set [1] came out at 2.
Turning to Bax response element, the binding signal (fold lower affinity than p53-DBD) in data set [1] stood at 2.
Regarding BclxL (from UniProt Q07817), the Kd in data set [2] is 5.5 µM.
Turning to Jag-1 response element, the binding signal (fold lower affinity than p53-DBD) in data set [1] was 2.
Substance “p63 DNA binding domain (from UniProt Q9H3D4 153-388) (domain or fragment)” registered a Kd in data set [3] of 38 µM.

One may read the Kd as a measure of binding affinity in units of concentration.
